In the FLAb antibody collection:

Test: melting temperature
Details: Circular dichroism

Row | Sequence | Tm
1 | ARVDOTPRTATKETGESLTINCVLTDTSYGLSSTYWYRKNPGSSNKEQISISGRYVESVNKRTKSFSLRIKDLTVADSATYICNAYIVRGVYGIIAKDVYGDGTALTVK | 64 °C
2 | ARVEQTPRTATKETGESLTINCVLTGGSCSLYSTSWFRKNPGTTDWERISIGGRYVESVNKGAKSFSLRIKDLTVADSATYYCKAQSCMDSRTVVLDWYEGSGTVLTVK | 76 °C
3 | AWVDQTPRTATKETGESLTINCVLTGTSCSLYSTSWFRKNPGTTDWERISIGGRYVESVNKGAKSFSLRIKDLTVADSATYYCKAQTADTWITVVIDGYDWYDGAGTALTVK | 59 °C
4 | DVQLQESGGGLVQPGGSLRLSCAASGFLFSDTYMTWARQAPGKGLEWLGGISKDGSGTLYEDSVEGRFTISRDNAKNTLYLQMNSLKSEDTALYYCSTGALLPTRPQGQGTQVTVSS | 51.5 °C
5 | EVQLVESGGGLVQPGGSLRLSCAASGSTFSSSSVGWYRQAPGKGLELVSAITSGGSTNTADSVKGRFTISRDNSKNTLYLQMNSLRAEDTAVYYCNVAGRNWVPISRYSPGPYWGQGTLVTVSS | 63.3 °C
6 | EVQLVESGGGLVQPGGSLRLSCAASGSTFSSSSVGWYRQAPGKQRELVSAITSGGSTNTADSVKGRFTISRDNSKNTLYLQMNSLRAEDTAVYYCNVAGRNWVPISRYSPGPYWGQGTLVTVSS | 60.9 °C
7 | PRVEQTPRITTKETGESLTINCVLTGTSCNLWTATWFRKNPGTTDWERIRIGGRYVESVNKGAKSFSLRIKDLTVADSATYYCKVQFNLYCGEADWYDGAGTLLTVK | 66 °C
8 | QLQLVESGGGLVQAGGSLRLSCAASGRTFSSATMGWFRQAPGKEREFVAAISWSGLSRYYADSVKGRFTISRDNAENTVYLQMNSLKTEDTAVYYCAADSWGCSGLGCYDARQYDVWGQGTQVTVSS | 98.2 °C
9 | QVQLVESGGGLVQAGGSLRLSCAASGRTYTMGWFRQAPGKEREFVAAMRWSDTDYADSLKGRFTISRDNANNAMYLQMNSLGPEDTAVYYCAAGEAWLARSTHHYDYWGQGTQVTVSS | 72.3 °C

Same assay, conditions: DSF (SYPRO)

Row | Sequence | Tm
10 | DVQLQASGGGLVQAGGSLRLSCAASGSTFSIKHHGWYRRAPGNQREWVAGINSENITNVAGAVKGRFTISRDNAKNTVYLQMNSLKVEDTAVYFCYAQDNDYRFLHRFWGQGTQVTVSLEPKTPKPQ | 52 °C
11 | DVQLVESGGGSVQAGGSLRLSCAASGYIASINYLGWFRQAPGKEREGVAAVSPAGGTPYYADSVKGRFTVSLDNAENTVYLQMNSLKPEDTALYYCAAARQGWYIPLNSYGYNYWGQGTQVTVSS | 74 °C
12 | EVQLQASGGGLVQAGSSLRLSCAASGLTTSTLYRMGWFRQAPGKEREFVGTITWSGGSTHYPDSLKGRFTISRDDAKNTGFLQMDSLKPEDTAIYYCAARTSAGIYDPTSPPAYDSWGQGTQVTVSS | 70 °C
13 | EVQLQASGGGLVQPGGSLRLACVASGFTLEYSAIGWFRQAPGKEREAVSRIRNRDGRAIYADSVKDRFTISRDNAKSTVYLQMDSLKPEDTATYYCGRHIGVRSSWALPSEYDYWGQGTQYIYSS | 60 °C
14 | EVQLQASGGGLVQPGGSLRLSCTASGSIFSINAMGWYRQTPRKERELVAAISEGGSTKYGDSVKGRFTISRDFAKNTQMVYLQMNSLKAEDTAVYYCKAQTEGPIADWGTSQYEYWGQGTQVTVSS | 51 °C
15 | GPHMAQVQLVESGGRLVQAGDSLRLSCAASGRTFSTSAMAWFRQAPGREREFVAAITWTVGNTILGDSVKGRFTISRDRAKNTVDLQMDNLEPEDTAVYYCSARSRGYVLSVLRSVDSYDYWGQGTQVTVS | 53.6 °C
16 | KVQLVESGGGLVQAGGSLRLACTASGSAFSINTMGWYRRAPGKQRELVASITSSGSTTYADSVKGRFTISRDSAKNTVFLQMNSVKPEDTSVYYCNGEIQRTDYNFWGQGTQVTVSS | 59.6 °C
17 | QVKLEESGGGLVQAGGSLRLSCAASERTFSRYPVAWFRQAPGAEREFVAVISSTGRSTYYADSVKGRFTISRDNAKVTVYLQMNNLKREDTAVYFCAVNSKRRRLQDPNEYDYWGQGTQVTVSSGSEQKLISEEDLNHHHHHH | 81.6 °C
18 | QVKLEESGGGLVQAGGSLRLSCAASERTFSRYPVAWFRQAPGAEREFVAVISSTGRSTYYADSVKGRFTISRDNAKVTVYLQMNNLKREDTAVYFCAVNSKRTRLQDPNEYDYWGQGTQVTVSSGSEQKLISEEDLNHHHHHH | 81.4 °C
19 | QVKLEESGGGLVQAGGSLRLSCAASERTFSRYPVAWFRQAPGAEREFVAVISSTGRSTYYADSVKGRFTISRDNAKVTVYLQMNNLKREDTAVYFCAVNSQRMRLQDPNEYDYWGQGTQVTVSSGSEQKLISEEDLNHHHHHH | 77 °C
20 | QVKLEESGGGLVQAGGSLRLSCAASERTFSRYPVAWFRQAPGAEREFVAVISSTGTSKYYADSVKGRFTISRDNAKVTVYLQMNNLKREDTAVYFCAVNSQRTRLQDPNEYDYWGQGTQVTVSSGSEQKLISEEDLNHHHHHH | 76.9 °C
21 | QVKLEESGGGLVQAGGSLRLSCAASERTFSRYPVAWFRQAPGAEREFVAVISSTGTSTYYADSVKGRFTISRDNAKVTVYLQMNNLKREDTAVYFCAVNSKRKRLQDPNEYDYWGQGTQVTVSSGSEQKLISEEDLNHHHHHH | 81.5 °C
22 | QVKLEESGGGLVQAGGSLRLSCAASERTFSRYPVAWFRQAPGAEREFVAVISSTGTSTYYADSVKGRFTISRDNAKVTVYLQMNNLKREDTAVYFCAVNSKRMRLQDPNEYDYWGQGTQVTVSSGSEQKLISEEDLNHHHHHH | 81.3 °C
23 | QVKLEESGGGLVQAGGSLRLSCAASERTFSRYPVAWFRQAPGAEREFVAVISSTGTSTYYADSVKGRFTISRDNAKVTVYLQMNNLKREDTAVYFCAVNSKRRRLQDPNEYDYWGQGTQVTVSSGSEQKLISEEDLNHHHHHH | 81.9 °C
24 | QVKLEESGGGLVQAGGSLRLSCAASERTFSRYPVAWFRQAPGAEREFVAVISSTGTSTYYADSVKGRFTISRDNAKVTVYLQMNNLKREDTAVYFCAVNSKRTRLQDPNEYDYWGQGTQVTVSSGSEQKLISEEDLNHHHHHH | 81.4 °C
25 | QVKLEESGGGLVQAGGSLRLSCAASERTFSRYPVAWFRQAPGAEREFVAVISSTGTSTYYADSVKGRFTISRDNAKVTVYLQMNNLKREDTAVYFCAVNSQRKRLQDPNEYDYWGQGTQVTVSSGSEQKLISEEDLNHHHHHH | 78.5 °C
26 | QVKLEESGGGLVQAGGSLRLSCAASERTFSRYPVAWFRQAPGAEREFVAVISSTGTSTYYADSVKGRFTISRDNAKVTVYLQMNNLKREDTAVYFCAVNSQRMRLQDPNEYDYWGQGTQVTVSSGSEQKLISEEDLNHHHHHH | 77.4 °C
27 | QVKLEESGGGLVQAGGSLRLSCAASERTFSRYPVAWFRQAPGAEREFVAVISSTGTSTYYADSVKGRFTISRDNAKVTVYLQMNNLKREDTAVYFCAVNSQRRRLQDPNEYDYWGQGTQVTVSSGSEQKLISEEDLNHHHHHH | 79.1 °C
